Measured values taken from the supplement of paper PMC9732359.
± gives the uncertainty stated by the source.

Assay: protein stability index of a GFP-peptide fusion (yeast GPS) (PSI 1-4); higher = more stable; sorted into four equal gates, so the index is relative within each strain
Outline: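 Peptides tiling yeast proteins in 17-residue segments were fused downstream of GFP, with Cherry expressed from the same plasmid. As a pooled library in yeast, mid-log cultures grown in leucine-free medium were sorted into four equal gates by GFP/Cherry fluorescence ratio. Gate plasmids were PCR-amplified and Illumina-sequenced, and barcodes linked reads to strains. Each peptide received a protein stability index equal to the sum of each gate's read frequency times its gate number.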

Sequence	protein stability index (doa10∆)	protein stability index (pdr5∆)	protein stability index (san1∆)	protein stability index (ubr1∆)
EDPNSAAFDEVEYKLTF [DIS3]	1.18 ± 0.12	1.6 ± 0.29	1.17 ± 0.25	
GRQTVLIKDNSAMVTTA [SRB2]		1.8 ± 0.28		
PDGVVVHRDDPALVGKL [SNF6]	3.3 ± 0.071	3.49 ± 0.071	3.36 ± 0.054	3.33 ± 0.053
IEMKDVSSKPSKPESSV [MED1]	3.15 ± 0.12	3.33 ± 0.11	2.89 ± 0.076	3.25 ± 0.064
GNAKESKALLREISNFS [SRP72]	2.97 ± 0.17	2.94 ± 0.13	2.7 ± 0.14	3.01 ± 0.15
SARGSYLRVSFKNTRET [RPL17A]	3.1 ± 0.048	2.82 ± 0.056	2.77 ± 0.051	2.86 ± 0.06
QPAKEKGVTEKDAVDYS [RRP6]	3.2 ± 0.21	3.15 ± 0.17	3.27 ± 0.091	3.42 ± 0.062
GPSAMRLSRCIRDNKLV [RPC82]	1.94 ± 0.14	2.23 ± 0.13	1.58 ± 0.15	2.15 ± 0.099
QARIILNHILEKSTQLQ [YGR119C/NUP57]	2.83 ± 0.12	3.09 ± 0.072	2.63 ± 0.12	2.79 ± 0.043
NSVRNSLLLAHFFSKSC [NUT1]	1.74 ± 0.05	1.28 ± 0.041	1.19 ± 0.078	1.18 ± 0.035
PSTTDDENGDKNDNGGK [SWI3]	3.09 ± 0.089	3.3 ± 0.069	3.23 ± 0.05	3.25 ± 0.079
QQNPKFLQSQRQQQQRS [SWI1]	2.47 ± 0.06	1.94 ± 0.063	2.67 ± 0.057	2.05 ± 0.067
ARLAILKERAKNISSQL [YGR119C/NUP57]	2.24 ± 0.079	2.77 ± 0.069	2.51 ± 0.072	2.51 ± 0.052
TEDQKVTTNINWRSFNA [SRP68]	3.13 ± 0.097	3.16 ± 0.074	3.1 ± 0.058	3.21 ± 0.049
TCAGGRLFNVVVQDSQT [SMC2]	2.84 ± 0.11	3.18 ± 0.11	2.39 ± 0.12	2.76 ± 0.082
NVPWPQNSYADKVTSQA [RPP1]	2.04 ± 0.094	2.19 ± 0.15	1.83 ± 0.1	2.25 ± 0.096
LIIQKIPSLQNNIEENL [ECM29]	2.91 ± 0.067	2.88 ± 0.066	2.66 ± 0.065	2.98 ± 0.071
ERGHPKDNARIYQVPEK [POP1]	3.02 ± 0.082	3.02 ± 0.1	3 ± 0.093	3.11 ± 0.05
PQKYVLHPQLHEVQYQE [SIN4]	1.49 ± 0.13	1.88 ± 0.082	2.15 ± 0.14	1.6 ± 0.064
FRKKRKFELGRQPANTK [RPS8A]	2.88 ± 0.063	3.12 ± 0.066	3.13 ± 0.082	3.16 ± 0.065
PKARQELPTQLALEIIV [RRP46]	1.77 ± 0.046	1.76 ± 0.045	1.52 ± 0.11	2.07 ± 0.054
ISTGGFMSNDGPTLEKY [SNU114]	2.22 ± 0.068	2.57 ± 0.065	2.31 ± 0.071	2.12 ± 0.053
DVNLDVRIHSIQVLTEA [IRR1]	2.19 ± 0.15	2.84 ± 0.2	2.78 ± 0.18	2.84 ± 0.13
HIHKHVKDEAFDDLLKP [RET1]	3.12 ± 0.11	3.4 ± 0.12	3.25 ± 0.073	3.11 ± 0.15
NKNLPFVWLSSEENIGS [SWI1]	2.9 ± 0.067	1.84 ± 0.072	1.59 ± 0.063	1.74 ± 0.053
SEKLITKYFEPTSTENN [ECM29]	2.87 ± 0.076	3.09 ± 0.066	3.04 ± 0.035	2.97 ± 0.041
IETIGHLITKEEIMHGL [RPN5]	2.82 ± 0.089	3.31 ± 0.14	3.13 ± 0.079	2.97 ± 0.067

Sequence	protein stability index (doa10∆)	protein stability index (pdr5∆)	protein stability index (san1∆)	protein stability index (ubr1∆)
VDVFAMPQSGTGVSVEA [RPN11]	3.1 ± 0.1	3.41 ± 0.13	3.41 ± 0.076	3.05 ± 0.095
KTHRGLRKVACIGAWHP [RPL3]	1.41 ± 0.064	3.19 ± 0.12	2.23 ± 0.087	2.92 ± 0.076
DNGLGPLKYAPHLPFSK [SWI3]	3.13 ± 0.058	3.22 ± 0.069	2.85 ± 0.07	3.21 ± 0.058
AQQLVGVYKRDNRTKST [SMC4]	3.11 ± 0.2	3.04 ± 0.2		
DRGIANIRNNIESQNLD [SRB4]	3.12 ± 0.14	3.34 ± 0.12	2.98 ± 0.11	3.07 ± 0.067
NRKRIVTLRKSLYTNTS [RPL3]	2.66 ± 0.069	2.27 ± 0.065	1.66 ± 0.087	1.73 ± 0.076
KQSGFGGQTKPVFHKKA [RPL42A]	2.74 ± 0.04	3.14 ± 0.053	2.89 ± 0.043	3.045 ± 0.029
HMISQEGIKETQAKRIF [SWI1]	3.1 ± 0.17	3.53 ± 0.21	3.19 ± 0.11	3.22 ± 0.13
VGEMKLLKKKDDPSKVR [YLR335W/NUP2]	3.29 ± 0.08	3.32 ± 0.15	2.98 ± 0.091	2.74 ± 0.16
LVGEYWEQLKITVVPVV [QCR6]	1.38 ± 0.26			
KNFENGPKKNVFYAPNV [RPC34]	2.99 ± 0.068	2.94 ± 0.071	2.66 ± 0.084	3.14 ± 0.063
MSGLPPPPPGFEEDSDL [PRP8]	3.19 ± 0.11	3.37 ± 0.083	3.13 ± 0.075	3.31 ± 0.078
GDNTSDVDMEDRNLTEF [RRI1]		3.08 ± 0.13	3.27 ± 0.18	3.19 ± 0.058
STVSANHSNNDIPTIAD [BRN1]	3.22 ± 0.097	3.03 ± 0.093	3.02 ± 0.069	3.24 ± 0.074
CRRMILTHVDLIEKFLR [RPB10]	2.85 ± 0.21	1.46 ± 0.11		2.04 ± 0.099
DAIQAGIWNDLGSGSNV [PUP1]	2.71 ± 0.26			
IKEENDMENMADEQKRS [ARP7]	3.54 ± 0.17	3.48 ± 0.15	3.24 ± 0.095	3.19 ± 0.24
IPLNRLSLDSDVKFPSN [SMC3]	1.69 ± 0.059	1.92 ± 0.064	2.05 ± 0.11	1.99 ± 0.054
RTQFGGGKSVGFGLVYN [RPS24A]	2.96 ± 0.065	2.82 ± 0.05	3.27 ± 0.047	2.91 ± 0.055
DIQLKNLFPLKPKMLPI [SRP68]	2.78 ± 0.077	2.66 ± 0.057	2.4 ± 0.058	2.46 ± 0.073
PKNSKTPQSKGFVRNSF [RPO31]	3.17 ± 0.15	3.03 ± 0.14	2.92 ± 0.12	3.18 ± 0.068
ALELDDTVVSRVNEMVQ [ECM29]	3.16 ± 0.17			3.16 ± 0.1
IDGKVIQAGKFDNKSTS [SNF2]	1.36 ± 0.057	1.42 ± 0.064	1.9 ± 0.21	1.95 ± 0.089
CLNTQRGDSTETSSFGS [RRI1]	3.61 ± 0.14	3.25 ± 0.17	3.37 ± 0.084	3.56 ± 0.17
TNIRRIIQDNISPRLVV [RRP46]	1.58 ± 0.037	1.69 ± 0.041	1.75 ± 0.07	1.82 ± 0.03
PRDLLRVIIQELRFPSP [PRP28]	1.74 ± 0.047	1.94 ± 0.055	1.78 ± 0.064	1.72 ± 0.061
